These results are taken from PMC5116672.

The nature of data set [1]: protein accumulation on Gp78 siRNA, immunoblot. The conditions noted are these: glycan lost; control: CD147(WT)-EGFP. For orientation: Immunoblotting shows a protein as a band on a membrane.
Data set [2] can be described thus: immunofluorescence colocalisation with chaperones. As to conditions: glycan lost; control: CD147(WT)-EGFP.
Data set [3] can be described thus: anti-EGFP immunoblot of total lysates; mRNA unchanged. As to conditions: glycan lost; control: CD147(WT)-EGFP.
The nature of data set [4]: confocal immunofluorescence with ER-Tracker, stable cells. The conditions noted are these: glycan lost; control: CD147(WT)-EGFP.
Data set [5] in a line: immunofluorescence, aggregation with GRP78, 24 h castanospermine. As to conditions: glycan changed form; control: CD147(WT)-EGFP cells without CAS.
Data set [6] can be described thus: confocal immunofluorescence with ER-Tracker, transient double mutants. As to conditions: glycan lost; control: CD147(WT)-EGFP.
The nature of data set [7]: immunofluorescence with CNX, 12 h castanospermine. As to conditions: glycan changed form.

B1: CD147: N152Q (protein)
parent chain: MAAALFVLLGFALLGTHGASGAAGTVFTTVEDLGSKILLTCSLNDSATEVTGHRWLKGGVVLKEDALPGQKTEFKVDSDDQWGEYSCVFLPEPMGTANIQLHGPPRVKAVKSSEHINEGETAMLVCKSESVPPVTDWAWYKITDSEDKALMNGSESRFFVSSSQGRSELHIENLNMEADPGQYRCNGTSSKGSDQAIITLRVRSHLAALWPFLGIVAEVLVLVTIIFIYEKRRKPEDVLDDDDAGSAPLKSSGQHQNDKGKNVRQRNSS
For the protein B1, the degradation_or_half_life result in data set [1] is listed as “decreases”. Moreover, the localisation_or_trafficking result in data set [2] was “increases”; in data set [4], “changes”. Further, the expression_or_secretion result in data set [3] is “decreases”.

B2: CD147: castanospermine (CAS) 24 h (protein)
parent chain: MAAALFVLLGFALLGTHGASGAAGTVFTTVEDLGSKILLTCSLNDSATEVTGHRWLKGGVVLKEDALPGQKTEFKVDSDDQWGEYSCVFLPEPMGTANIQLHGPPRVKAVKSSEHINEGETAMLVCKSESVPPVTDWAWYKITDSEDKALMNGSESRFFVSSSQGRSELHIENLNMEADPGQYRCNGTSSKGSDQAIITLRVRSHLAALWPFLGIVAEVLVLVTIIFIYEKRRKPEDVLDDDDAGSAPLKSSGQHQNDKGKNVRQRNSS
For the protein B2, the stability_or_folding result in data set [5] is listed as “decreases”.

B3: CD147: N152/186Q (protein)
parent chain: MAAALFVLLGFALLGTHGASGAAGTVFTTVEDLGSKILLTCSLNDSATEVTGHRWLKGGVVLKEDALPGQKTEFKVDSDDQWGEYSCVFLPEPMGTANIQLHGPPRVKAVKSSEHINEGETAMLVCKSESVPPVTDWAWYKITDSEDKALMNGSESRFFVSSSQGRSELHIENLNMEADPGQYRCNGTSSKGSDQAIITLRVRSHLAALWPFLGIVAEVLVLVTIIFIYEKRRKPEDVLDDDDAGSAPLKSSGQHQNDKGKNVRQRNSS
As for B3, in data set [6], the localisation_or_trafficking entry was “changes”.

B4: CD147: N44Q (protein)
parent chain: MAAALFVLLGFALLGTHGASGAAGTVFTTVEDLGSKILLTCSLNDSATEVTGHRWLKGGVVLKEDALPGQKTEFKVDSDDQWGEYSCVFLPEPMGTANIQLHGPPRVKAVKSSEHINEGETAMLVCKSESVPPVTDWAWYKITDSEDKALMNGSESRFFVSSSQGRSELHIENLNMEADPGQYRCNGTSSKGSDQAIITLRVRSHLAALWPFLGIVAEVLVLVTIIFIYEKRRKPEDVLDDDDAGSAPLKSSGQHQNDKGKNVRQRNSS
Consider B4, for which, in data set [4], the localisation_or_trafficking result is listed as “changes”.

B5: CD147: castanospermine (CAS) 12 h on N44/186Q (protein)
parent chain: MAAALFVLLGFALLGTHGASGAAGTVFTTVEDLGSKILLTCSLNDSATEVTGHRWLKGGVVLKEDALPGQKTEFKVDSDDQWGEYSCVFLPEPMGTANIQLHGPPRVKAVKSSEHINEGETAMLVCKSESVPPVTDWAWYKITDSEDKALMNGSESRFFVSSSQGRSELHIENLNMEADPGQYRCNGTSSKGSDQAIITLRVRSHLAALWPFLGIVAEVLVLVTIIFIYEKRRKPEDVLDDDDAGSAPLKSSGQHQNDKGKNVRQRNSS
B5: in data set [7] (control: CD147(N44/186Q)-EGFP cells without CAS), the localisation_or_trafficking result is “changes”.

B6: CD147: N186Q (protein)
parent chain: MAAALFVLLGFALLGTHGASGAAGTVFTTVEDLGSKILLTCSLNDSATEVTGHRWLKGGVVLKEDALPGQKTEFKVDSDDQWGEYSCVFLPEPMGTANIQLHGPPRVKAVKSSEHINEGETAMLVCKSESVPPVTDWAWYKITDSEDKALMNGSESRFFVSSSQGRSELHIENLNMEADPGQYRCNGTSSKGSDQAIITLRVRSHLAALWPFLGIVAEVLVLVTIIFIYEKRRKPEDVLDDDDAGSAPLKSSGQHQNDKGKNVRQRNSS
In the case of B6, the localisation_or_trafficking result in data set [4] was “changes”.

B7: CD147: castanospermine (CAS) 12 h (protein)
parent chain: MAAALFVLLGFALLGTHGASGAAGTVFTTVEDLGSKILLTCSLNDSATEVTGHRWLKGGVVLKEDALPGQKTEFKVDSDDQWGEYSCVFLPEPMGTANIQLHGPPRVKAVKSSEHINEGETAMLVCKSESVPPVTDWAWYKITDSEDKALMNGSESRFFVSSSQGRSELHIENLNMEADPGQYRCNGTSSKGSDQAIITLRVRSHLAALWPFLGIVAEVLVLVTIIFIYEKRRKPEDVLDDDDAGSAPLKSSGQHQNDKGKNVRQRNSS
With B7, the localisation_or_trafficking entry in data set [7] (control: CD147(WT)-EGFP cells without CAS) is “changes”.

B8: CD147: N44/152/186Q (protein)
parent chain: MAAALFVLLGFALLGTHGASGAAGTVFTTVEDLGSKILLTCSLNDSATEVTGHRWLKGGVVLKEDALPGQKTEFKVDSDDQWGEYSCVFLPEPMGTANIQLHGPPRVKAVKSSEHINEGETAMLVCKSESVPPVTDWAWYKITDSEDKALMNGSESRFFVSSSQGRSELHIENLNMEADPGQYRCNGTSSKGSDQAIITLRVRSHLAALWPFLGIVAEVLVLVTIIFIYEKRRKPEDVLDDDDAGSAPLKSSGQHQNDKGKNVRQRNSS
As to B8, the expression_or_secretion entry in data set [3] was “decreases”. Moreover, the localisation_or_trafficking result in data set [4] is on record as “changes”.

B9: CD147: N44/152Q (protein)
parent chain: MAAALFVLLGFALLGTHGASGAAGTVFTTVEDLGSKILLTCSLNDSATEVTGHRWLKGGVVLKEDALPGQKTEFKVDSDDQWGEYSCVFLPEPMGTANIQLHGPPRVKAVKSSEHINEGETAMLVCKSESVPPVTDWAWYKITDSEDKALMNGSESRFFVSSSQGRSELHIENLNMEADPGQYRCNGTSSKGSDQAIITLRVRSHLAALWPFLGIVAEVLVLVTIIFIYEKRRKPEDVLDDDDAGSAPLKSSGQHQNDKGKNVRQRNSS
Consider B9, for which the localisation_or_trafficking entry in data set [6] is “changes”.

B10: CD147: N44/186Q (protein)
parent chain: MAAALFVLLGFALLGTHGASGAAGTVFTTVEDLGSKILLTCSLNDSATEVTGHRWLKGGVVLKEDALPGQKTEFKVDSDDQWGEYSCVFLPEPMGTANIQLHGPPRVKAVKSSEHINEGETAMLVCKSESVPPVTDWAWYKITDSEDKALMNGSESRFFVSSSQGRSELHIENLNMEADPGQYRCNGTSSKGSDQAIITLRVRSHLAALWPFLGIVAEVLVLVTIIFIYEKRRKPEDVLDDDDAGSAPLKSSGQHQNDKGKNVRQRNSS
On to B10, for which the localisation_or_trafficking result in data set [6] is “no change”.
